Our source for the Kd values is PMC3188500.

The target of the data set is TATA binding protein (TBP) (UniProt P20226). Description: fluorescence (FAM/BHQ transcription factor beacon titration). The following applies: 5 mM MgCl2; no depletant; value stated in text next to ref 35, may come from it; internal BHQ after the T at position 20; 50 mM sodium phosphate pH 7.0, 150 mM NaCl, 5 mM MgCl2, 25 °C; 10 nM labeled TF switch.
Chain of UniProt P20226 (P20226 whole entry): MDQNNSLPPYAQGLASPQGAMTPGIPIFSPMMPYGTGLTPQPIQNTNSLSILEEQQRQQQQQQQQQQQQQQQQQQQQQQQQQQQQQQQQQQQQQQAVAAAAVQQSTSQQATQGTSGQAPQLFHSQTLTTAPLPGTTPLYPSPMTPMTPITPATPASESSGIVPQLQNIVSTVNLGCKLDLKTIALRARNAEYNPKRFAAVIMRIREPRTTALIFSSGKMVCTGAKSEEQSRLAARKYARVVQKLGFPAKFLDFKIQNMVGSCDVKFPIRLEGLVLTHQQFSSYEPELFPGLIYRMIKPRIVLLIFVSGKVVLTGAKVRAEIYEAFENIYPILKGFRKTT

As usually defined, the Kd is the concentration at which binding is half-saturated. Lower therefore signals tighter binding. In turn, “TACTTTTATATAAATAAGTTGTGATTTTTATATATTTCAC [TFprobe (transcription factor beacon/switch)]” showed a dissociation constant (Kd) of 45 nM.
